T1: Bik1-6xHis (S. cerevisiae, UniProt P11709 1-440)
T1 construct: Bik1, S. cerevisiae CLIP-170 homolog; Detected with an anti-penta-His antibody in SEC fractions; also called Bik1/CLIP-170; source: E. coli BL21 Rosetta, purified (HisTrap, gel filtration)
T1 sequence (looked up): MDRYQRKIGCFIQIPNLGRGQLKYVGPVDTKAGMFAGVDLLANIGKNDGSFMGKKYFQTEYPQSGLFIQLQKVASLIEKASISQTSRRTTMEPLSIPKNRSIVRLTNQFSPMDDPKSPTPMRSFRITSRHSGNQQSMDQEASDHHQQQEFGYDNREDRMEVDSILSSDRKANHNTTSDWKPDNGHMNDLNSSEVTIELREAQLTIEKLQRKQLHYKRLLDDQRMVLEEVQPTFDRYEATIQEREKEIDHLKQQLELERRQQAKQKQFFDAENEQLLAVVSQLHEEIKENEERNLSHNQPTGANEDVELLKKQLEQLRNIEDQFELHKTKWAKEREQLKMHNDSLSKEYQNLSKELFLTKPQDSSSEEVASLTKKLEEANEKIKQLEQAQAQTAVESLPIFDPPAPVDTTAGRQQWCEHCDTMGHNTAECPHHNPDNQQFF

B1: Bim1 (yeast homolog of EB1), recombinant (natural protein, S. cerevisiae, UniProt P40013 1-344, looked up)
chain: MSAGIGESRTELLTWLNGLLNLNYKKIEECGTGAAYCQIMDSIYGDLPMNRVKFNATAEYEFQTNYKILQSCFSRHGIEKTVYVDKLIRCKFQDNLEFLQWLKKHWIRHKDESVYDPDARRKYRPIITNNSATKPRTVSNPTTAKRSSSTGTGSAMSGGLATRHSSLGINGSRKTSVTQGQLVAIQAELTKSQETIGSLNEEIEQYKGTVSTLEIEREFYFNKLRDIEILVHTTQDLINEGVYKFNDETITGHGNGNGGALLRFVKKVESILYATAEGFEMNDGEDELNDKNLGEHGTVPNQGGYANSNGEVNGNEGSNHDVIMQNDEGEVGVSNNLIIDEETF
notes: Bim1, S. cerevisiae microtubule plus end-tracking protein; CH domain, linker, coiled coil, EBH domain, C-terminal ETF; also called Bim1/EB1; source: E. coli, purified (GSTrap, further steps as in Zimniak et al 2009)
B2: Duo1 subunit within recombinant Dam1^WTc (natural protein, S. cerevisiae, UniProt P53168 1-247, looked up)
chain: MSEQSQLDDSTIDKLIPQIFNEMRSNLNNTTNKFPKSTGGGASDNISANSNSIRSFNSITTQSLLKESESLDKITAMIKNVTAALKNNLPVYVNQVHEVCKSTNSILDSWINIHSQAGYIHKLMSDQTYLKLINDRLHNENVNTNDEDGSTLHNVIALKKKEILDLRQKLENRKGEKDAAPAKPPNQGLNPRYGVQSGRRPVPSAGISNNGRVRKTHVPASKRPSGIPRVTNRWTKPTASSSRKMFR
notes: Duo1, subunit of the Dam1 complex, S. cerevisiae; Stood in the cross-linking experiment as a subunit of m1; source: E. coli, purified as part of Dam1c
B3: Spc34 subunit within recombinant Dam1^WTc (natural protein, S. cerevisiae, UniProt P36131 1-295, looked up)
chain: MGESLDRCIDDINRAVDSMSTLYFKPPGIFHNAILQGASNKASIRKDITRLIKDCNHDEAYLLFKVNPEKQSVSRRDGKEGVFDYVIKRDTDMKRNRRLGRPGEKPIIHVPKEVYLNKDRLDLNNKRRRTATTSGGGLNGFIFDTDLIGSSVISNSSSGTFKALSAVFKDDPQIQRLLYALENGSVLMEEESNNQRRKTIFVEDFPTDLILKVMAEVTDLWPLTEFKQDYDQLYHNYEQLSSKLRFIKKEVLLQDDRLKTMSQYHPSSSHDVAKIIRKEKDEIRRLEMEIANLQE
notes: Spc34, subunit of the Dam1 complex, S. cerevisiae; Stood in the cross-linking experiment as a subunit of m1; source: E. coli, purified as part of Dam1c
B4: Dam1 subunit within recombinant Dam1^WTc (natural protein, S. cerevisiae, UniProt P53267 1-343, looked up)
chain: MSEDKAKLGTTRSATEYRLSIGSAPTSRRSSMGESSSLMKFADQEGLTSSVGEYNENTIQQLLLPKIRELSDSIITLDSNFTRLNFIHESLADLNESLGSLLYGIMSNSWCVEFSQAPHDIQDDLIAIKQLKSLEDEKNNLVMELSNMERGIKRKKDEQGENDLAKASQNKQFNQPLFPSSQVRKYRSYDNRDKRKPSKIGNNLQVENEEDYEDDTSSEASFVLNPTNIGMSKSSQGHVTKTTRLNNNTNSKLRRKSILHTIRNSIASGADLPIENDNVVNLGDLHPNNRISLGSGAARVVNGPVTKNRNSMFSGRAERKPTESRHSVAKKTEKKINTRPPFR
notes: Dam1, subunit of the Dam1 complex, S. cerevisiae; Stood in the cross-linking experiment as a subunit of m1; source: E. coli, purified as part of Dam1c

Columns and labels:
[1] = biological target: Dam1 complex, wild type (Dam1^WTc), recombinant, with Hsk3-6xHis (S. cerevisiae) (UniProt P53267); experiment: pull-down; Ndc80c-Flag on anti-Flag M2 agarose beads (loaded from Sf9 lysate, washed); Dam1c or Bim1 alone or Dam1c pre-incubated with increasing Bim1 (up to 16 µM), 4°C 15 min; 25 mM HEPES pH 7.4, 200 mM NaCl, 0.01% Triton X-100; eluted with 3xFlag peptide, SDS-PAGE
Bik1-6xHis = biological target: T1, Bik1-6xHis; experiment: SEC; analytical, Superose 6 Increase 3.2/300; 25 mM HEPES pH 7.4, 200 mM NaCl, 1 mM MgCl2, 0.5 mM TCEP, 2.5% glycerol; fractions by SDS-PAGE or Western blot; Dam1c with Bim1-Bik1 also at 5, 7.5, 10 µM input and at 100 mM NaCl; details: both partners purified
[2] = biological target: B1; experiment: cross-linking; BS3-H12/D12 600 µM, 35°C, 45 min; 60 µg Dam1c without or with 7.4 µg Bim1; cross-linked lysines identified by mass spectrometry; details: both partners purified
[3] = biological target: B2; experiment: as above; details: both partners purified
[4] = biological target: B4; experiment: as above; details: both partners purified
[5] = biological target: B3; experiment: as above; details: both partners purified

binding result [2]	Binder	further results
–	B1	decrease of the amount of Dam1c bound to Ndc80c with Bim1 up to 16 µM [1]: 30%; binding result (Bik1-6xHis): binds
binds	Spc19 subunit within recombinant Dam1^WTc (natural protein, S. cerevisiae, UniProt Q03954 1-165, looked up, Spc19, subunit of the Dam1 complex, S. cerevisiae; Stood in the cross-linking experiment as a subunit of m1; source: E. coli, purified as part of Dam1c) MTDALEQSVLALEGTVSVLKDSVESLKCANEPSTNLASTMLQTKRVFRLVPEYDVERSKLDLIEEVEPLVRTLGDKLRKSMGRMQRELDTLQQTYELNDLRLKKNISMDDDDALNSPDMGQEYEGRDADDVVMMASSTNEELEELKKLKEKKKQLENKLEILKQK	binding result [3]: binds
binds	B2	binding result [4]: binds; binding result [5]: binds
binds	B3	–
binds	B4	–
binds	Dad4 subunit within recombinant Dam1^WTc (natural protein, S. cerevisiae, UniProt P69851 1-72, looked up, Dad4, subunit of the Dam1 complex, S. cerevisiae; Stood in the cross-linking experiment as a subunit of m1; source: E. coli, purified as part of Dam1c) MENPHEQVQANILSRIIGNVKRLNESVAILNQELVTINNRNKNLEIMGAICDNYHSSVQFNLEATNNKKPPL	–

— PMC8441410, “Phospho‐regulated Bim1/EB1 interactions trigger Dam1c ring assembly at the budding yeast outer kinetochore” (The EMBO Journal, 2021)
